Results taken from patent US12459996B2, “Methods for treating alcohol-induced brain injury and reducing alcohol addiction” (The Regents of the University of California, priority 2017, dated 2025).

Tested on: cultured GFAP+F4/80- astrocytes
Experiment: IL-1β stimulation of cultured astrocytes, gene expression microarray
Format: cell-based, mouse
Conditions: 5 ng/ml, 24 h
Description: Whole mouse genome gene expression via Microarray: Primary astrocytes (5×10^5) were stimulated with IL-1β (5 ng/ml), TGF-β1(5 ng/ml) or vehicle for 24 h, harvested, and mRNA was purified using RNAeasy™ columns (Qiagen); and 160 ng of purified RNA per sample was labeled using the LRILAK PLUS™, 2-color, low RNA input Linear Amplification kit and hybridized to a Whole Mouse Genome Microarray 4×44 K™ 60mer slide according to the manufacturer's instructions (Agilent, Santa Clara, CA). Slides were scanned using the Agilent GZ505B Scanner™ and analyzed using the Gene Spring Software™ (Agilent).
To determine the effect of microglia-derived cytokines on astrogliosis 21,22, cultured GFAP^+F4/80-astrocytes were in vitro stimulated with TGF-β1 or IL-β. […] In addition, cultured astrocytes expressed glutamate receptors (mGluRs) that mediate neuron-astrocyte signaling (FIG. 14D). Under pathological conditions, neurodegeneration triggers expansion of reactive astrocytes, upregulation of TGF-β 1, and mGuRs, which together generate neuroprotective effects^24.
FIG. 14A: Primary GFAP^+F4/80^− astrocytes and GFAP^−F4/80^+ microglial cells were isolated from Wt mice, and phenotyped by immunocytochemistry. Cell purity was calculated as percent of total cells (representative images ×20 objective). […] The data are average of (triplicates). FIG. 14B-C: Cultured astrocytes (5×10^5 cells per ml) were stimulated with TGF-β1 (5 ng/ml), or IL-1β (5 ng/ml), or PBS, and subjected to the customized gene expression microarray (Agilent. FIG. 14B: GO enrichment profile for IL-1β- and FIG. 14C: TGF-β- (vs PBS-) stimulated astrocytes is shown.

IL-β1: IL-1β cytokine (5 ng/ml) used to stimulate cultured astrocytes
CCL2, fold induction vs vehicle: 200 fold | CCL5, fold induction vs vehicle: 13 fold | CCL7, fold induction vs vehicle: 400 fold | Cxcl1, fold induction vs vehicle: 14 fold | IL-6, fold induction vs vehicle: 20 fold
